Values of other authors in PMC8771847.

Target: Piezo1 (Mus musculus) (UniProt E2JF22)
Chain of UniProt E2JF22 (E2JF22 whole entry): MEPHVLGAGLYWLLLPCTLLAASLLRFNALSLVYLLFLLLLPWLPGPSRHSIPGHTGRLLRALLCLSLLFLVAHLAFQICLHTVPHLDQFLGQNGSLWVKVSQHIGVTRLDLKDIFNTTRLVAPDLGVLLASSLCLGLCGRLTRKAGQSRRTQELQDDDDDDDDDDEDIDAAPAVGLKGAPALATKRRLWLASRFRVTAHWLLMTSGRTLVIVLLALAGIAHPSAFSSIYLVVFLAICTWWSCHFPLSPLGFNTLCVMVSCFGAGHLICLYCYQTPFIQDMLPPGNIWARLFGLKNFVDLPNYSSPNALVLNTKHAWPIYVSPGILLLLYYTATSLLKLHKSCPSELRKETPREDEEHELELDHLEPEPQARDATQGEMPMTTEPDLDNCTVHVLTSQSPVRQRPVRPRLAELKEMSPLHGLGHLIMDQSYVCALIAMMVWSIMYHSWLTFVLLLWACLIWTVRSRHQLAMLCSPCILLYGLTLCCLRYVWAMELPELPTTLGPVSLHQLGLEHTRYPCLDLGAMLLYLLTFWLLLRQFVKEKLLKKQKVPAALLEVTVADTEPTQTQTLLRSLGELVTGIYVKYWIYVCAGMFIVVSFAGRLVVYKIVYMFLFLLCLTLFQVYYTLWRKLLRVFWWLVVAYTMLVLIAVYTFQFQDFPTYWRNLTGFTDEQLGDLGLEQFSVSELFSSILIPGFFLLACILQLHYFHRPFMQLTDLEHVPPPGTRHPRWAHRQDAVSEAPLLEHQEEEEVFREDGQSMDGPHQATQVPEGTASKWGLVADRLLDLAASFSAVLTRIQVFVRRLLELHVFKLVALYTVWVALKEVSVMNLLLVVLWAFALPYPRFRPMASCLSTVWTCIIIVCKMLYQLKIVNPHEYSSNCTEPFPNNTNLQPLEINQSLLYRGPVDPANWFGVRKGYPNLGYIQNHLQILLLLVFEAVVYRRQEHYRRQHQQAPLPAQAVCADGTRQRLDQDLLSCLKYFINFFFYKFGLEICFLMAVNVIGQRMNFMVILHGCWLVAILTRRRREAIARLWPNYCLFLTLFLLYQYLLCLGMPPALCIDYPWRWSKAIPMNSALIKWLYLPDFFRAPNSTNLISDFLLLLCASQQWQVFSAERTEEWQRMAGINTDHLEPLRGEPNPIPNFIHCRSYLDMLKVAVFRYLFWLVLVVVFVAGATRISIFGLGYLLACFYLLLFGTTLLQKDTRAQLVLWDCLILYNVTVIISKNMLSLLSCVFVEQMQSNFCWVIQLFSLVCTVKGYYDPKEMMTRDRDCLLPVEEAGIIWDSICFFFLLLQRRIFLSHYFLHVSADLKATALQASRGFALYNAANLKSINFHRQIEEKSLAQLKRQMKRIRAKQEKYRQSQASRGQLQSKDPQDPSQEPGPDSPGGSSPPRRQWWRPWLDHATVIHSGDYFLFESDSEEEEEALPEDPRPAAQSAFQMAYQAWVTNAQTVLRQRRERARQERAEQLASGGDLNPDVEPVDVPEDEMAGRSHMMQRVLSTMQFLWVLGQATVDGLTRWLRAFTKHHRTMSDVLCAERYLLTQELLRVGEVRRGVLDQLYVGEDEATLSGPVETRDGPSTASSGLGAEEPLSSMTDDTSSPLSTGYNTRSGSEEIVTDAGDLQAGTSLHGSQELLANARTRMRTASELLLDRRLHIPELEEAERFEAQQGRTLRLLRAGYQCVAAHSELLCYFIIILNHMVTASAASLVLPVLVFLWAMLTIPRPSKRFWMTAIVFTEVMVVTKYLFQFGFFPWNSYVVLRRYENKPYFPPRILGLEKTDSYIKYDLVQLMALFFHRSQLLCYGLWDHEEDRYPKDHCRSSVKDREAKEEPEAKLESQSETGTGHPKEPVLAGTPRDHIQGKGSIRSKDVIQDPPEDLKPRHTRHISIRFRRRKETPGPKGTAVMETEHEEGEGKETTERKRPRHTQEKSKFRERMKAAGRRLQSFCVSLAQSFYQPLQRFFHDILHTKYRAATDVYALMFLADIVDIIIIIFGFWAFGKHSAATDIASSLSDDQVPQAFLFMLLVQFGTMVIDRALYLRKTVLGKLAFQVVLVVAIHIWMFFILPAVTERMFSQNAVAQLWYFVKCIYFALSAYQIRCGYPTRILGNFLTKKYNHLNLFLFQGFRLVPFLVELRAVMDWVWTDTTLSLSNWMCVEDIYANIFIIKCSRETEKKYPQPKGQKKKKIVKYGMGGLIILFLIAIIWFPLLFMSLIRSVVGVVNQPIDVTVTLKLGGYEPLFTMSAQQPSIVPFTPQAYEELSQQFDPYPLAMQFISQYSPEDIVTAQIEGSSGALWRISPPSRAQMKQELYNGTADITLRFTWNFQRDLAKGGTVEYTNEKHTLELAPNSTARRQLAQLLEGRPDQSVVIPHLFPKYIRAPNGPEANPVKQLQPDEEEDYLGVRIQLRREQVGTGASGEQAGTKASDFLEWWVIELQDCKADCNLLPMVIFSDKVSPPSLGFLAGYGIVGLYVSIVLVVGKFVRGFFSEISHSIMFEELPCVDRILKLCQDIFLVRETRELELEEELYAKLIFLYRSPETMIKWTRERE

Question: Which Kd does the source give for GsMTx-4 (from UniProt Q7YT39) here?
Answer: 2000 nM
